Measurements reported in the supplement of paper PMC9170038.

These sequences were tested on MS2 coat protein (assay: apparent KD of MS2 coat protein; higher = weaker reporter binding). Conditions: Eterna round: R107; input ligand: theophylline 20 uM.
In short: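 The designed RNA switches were transcribed on-chip from Illumina sequencing clusters. In 100 mM Tris-HCl pH 7.5, 80 mM KCl and 4 mM MgCl2, without or with constant ligand, they were titrated with SNAP-549-labelled MS2 coat protein from 0.7 or 1.5 nM to 3 µM in twofold steps. Apparent KD is the per-design median of normalised cluster binding-curve fits.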

Row | Sequence | apparent KD of MS2 coat protein
1 | GUGUCCUAGUCGGCCGCCACUGGUACGAAUACCUUCACCCGUGUGCACAUGAGGAUCACCCAUGUCAGGACCGGGACUAGGGUGU [SSTryp B #24] | 11.4 nM
2 | GGACUAACCAGAAGGAGCGAUACGCAGAAACUGCAAUUUCCUCUACACGAGGAUCACCCGUGUCAGGUAGGUCGCUGGUUAGUCG | 35.2 nM
3 | GCUACGUGCUGAAGGAGCGUGGACCUAAACAUGAGGAUCACCCAUGUCGUGUAGGCAGAUUCACAGGUAGGUCGCAGCACGUAGC [SSAB NP+V+V2 #14 Same Structure] | 123 nM
4 | GUUGAGACCUCGGCCGCCACUCGCCAUGAGGAUCUCCCAUGUAACAUGAGGAUCACCCAUGUACUGAGGACCGGGAGGUCCUUGU [Same State Tryptophan B GF 16] | 18.5 nM
5 | ACAUGAGGAUCACCCAUGUAGCCUAGGGAAGGAGCGUCGUAAGAGACAGGUAGGUCGCCCGCAUGUGAGUCAUCCAUGACGAGGG [#18 Same State - Arginine A] | 30.1 nM
6 | AUCGUACCUGGUGAUACCAGCAAGUGAUUAUAACAUGAGGAUCACCCAUGUAAUCAGUGAUGCCCUUGGCAGCAUAAUCGGUACA [#24 Same State - Theophylline B] | 37.8 nM
7 | CUAUAUGGAAACAUAUAGAAGCGAAAGCAACGAGGACCGGUACGGCCGCCACUCGAAGAGUGGUGGACAUGAGGAUCACCCAUGU [Design 3] | 71.6 nM
8 | AGAUGUAGCGGAAGGAGCGUCAUGAGGAUCACCCAUGACUCCCGUUGUGGGAGUUCCUUAGGUCAGGUAGGUCGCCGUUACGUCA [Omei Arg B SS B v5] | 563 nM
9 | AUCAUAAUAGCCUCGUGUAAUUAAAUGGAACGAGGACCGGUACGGCCGCCACUCGAUAUAAACAUGAGGAUCACCCAUGUAAGCA [JR_ExcTryptoA_Sub004] | 44.1 nM
10 | GCACCAGGUACGGAUACCAGAGCAAGCCAAAUGAGUGACCAUGAGGAUCACCCAUGGUUGCUCCCUUGGCAGCCGUACCUGGUGC [ETB NP+V+V2 #13 Diff Apt, +-Same Structure] | 12.1 nM
11 | UGUAUGUGAUCUGAUACCAGUCCAACUGGUAAAACCUGAGGAUCACCCUGGUAAAAUUGGGACCCUUGGCAGCAGAUCGCAUACU | 674 nM
12 | AACGUAUACAGAAGGAGCGUGAUUUAUAAUUCUUUAAAAUAUACAUGAGGAUCACCCAUGUCACAGGUAGGUCGCUGUAUUCGUA [JR_ExcArginiB_Sub024] | 43.1 nM
13 | ACGCUGAUUGAUUACAAUCAGCGAAAAGAUACCAGUGGGUAAUCCCACCCUUGGCAGCUUAAAUAUGAGGAUCACCCAUAUGGUA [TheoAS 18 #MS2Right #BothOrNeither #AlternativeMS2] | 155 nM
14 | CUGGACAUGAGGAUCACCCAUGUAAAUCCUCGAGGACCGGUACGGCCGCCACUCGAACGAGUGGCGCGCGAGUGCGCACUCGCGC [aKa] | 66.9 nM
15 | AAUCAUAGGGCGGCCGCCACUAAACAUGAGGAUCACCCAUGUCUCGAGGGCUUGCGUUUGGGAAGUAGGACCGGGCCAAUAGUAA [Tryp B Ex Mod2] | 23 nM
16 | GUUACCAUGUCGGCCGCCACUAACAAGGUUAUGGCAAGUCUACACGACAUGAGGAUCACCCAUGUUAGGACCGGGACCCAUACCC [theeternabot_exclusion_MS2_Trp_B_44] | 17.5 nM
17 | AUUUACAUGGUCAUAUAUAUAUCGUCAGAUACCAGACUAGAUAUUGUCCCUUGGCAGCUGUUACAUGAGGAUCACCCAUGUUAUA [JR_Nu_ExcTheophyA_Sub020] | 113 nM
18 | AGAGCAUUGACGGCCGCCACUCAUGUCACAUGAGGAUCACCCAUGUGAUGGGUAAUCGCCCGGUUGAGGACCGGGUCAAUGCUCA [Omei Tryp SS B v3] | 16.9 nM
19 | UCUUUCUAUGUAGAUACCAGCAUGUUAUAUUUCUAAUGACAUGAGGAUCACCCAUGUAAAUGCCCUUGGCAGCUACAUUUUCUUU [SSTHB #4] | 22.3 nM

Same assay, conditions: Eterna round: R107; input ligand: theophylline 2 mM

Row | Sequence | apparent KD of MS2 coat protein
20 | UACUUACAUGAGGAUCACCCAUGUGGCGAAGGAGCGGCAUGAGGGCCAGGUAGGUCGCGCCAACAUACAUACAUGAGGAUCUCCC [Same State Arginine A 4] | 118 nM
21 | UUGGCAGCAUGGGUGGCUGCCAAGGCUGAUACCAGCCACGAAAGUGGCCCUUGGCAGCAGCAAACAUGAGGAUCACCCAUGUUAA [(T)''-(M)'-(T)'-(Theo)-(Ms2)_Design3] | 104 nM
22 | CGUCGAAACUGAAGGAGCGAGAUAACAACAUUGGGUCUCAACAUGAGGAUCACCCAUGUAUCUCAGGUAGGUCGCGGUGUCACCG [Exclusion Arginine B GF19] | 429 nM
23 | CCGUCACAUGAGGAUCACCCAUGUGCGGAAGGAGCGGACGACAGUCCAGGUAGGUCGCCGUAUAGCCAAUGACCAGCAGUGUCGG [Betesotiqu] | 9.93 nM
24 | AUACAUGAGGAUCACCCAUGUUAUAGUGAAGGAGCGACAUUUAUGUCAGGUAGGUCGCACUAUUGUUUAAUGAUUCUUGGAUCUU [JR_ExcArginiA_Sub017] | 15.1 nM
25 | ACAUGUUGGUGGUACCAACGAAGGCGGAAACGAGGACCGGUACGGCCGCCACUCGGCGACAUGAGGAUCACCCAUGUGGUUAAAA [Exclusion - Tryptophan A (Freestyle 3)] | 95.7 nM
26 | UGUAUGUGAACUGAUACCAGACCUCAAUCUUGAGGAUCACCCAAGGAGGACGAAAGUCCGGUCCCUUGGCAGCAGUUCACAUACU [ThBS - Unstable 2] | 40.5 nM
27 | CGGUCGGUCGGUCGGUGAGUAUGGGAUGAAGGAGCGUGGGAAGCUACAGGUAGGUCGCAUCCGGGACAUGAGGAUCACCCAUGUU [#19 Same State - Arginine A] | 41.7 nM
28 | UUCAGCUAGUCGGCCGCCACUACUUGAGGAUCACCCAGGUAGGUCCACACUGCUUCGGCAGUGAGUAGGACCGGGACUAGCUGAG | 39.4 nM
29 | UGUAUGGACUGAAGGAGCGCCUCAAAAUAGCUUGAGGAUCACCCAAGUAAGGCGAAAGCCGGGCAGGUAGGUCGCAGUCCAUACU [ArgBX 3] | 15.2 nM
30 | AGUAUUGGAAACAGUACUAGUGAUCCGGUCCGAGGACCGGUACGGCCGCCACUCGAUUUAAAUAAACAUGAGGAUCACCCAUGUA [Ex Tryptophan A 14] | 16.5 nM
31 | UACCGAUGAAGAAGGAGCGAUUUUAUGUUACAUGAGGAUCACCCAUGUGGACUAGGUGAAGAUCAGGUAGGUCGCUUCAUCGGUA [SSAB NP+V+V2 #20] | 22 nM
32 | UCGCUAUUGUCGGCCGCCACUACUGCAGGGAAACAAAUAUAACCACAUGAGGAUCACCCAUGUCUUAGGACCGGGACACCCAUCU [theeternabot_sameState_MS2_Trp_B_2] | 119 nM
33 | UUCUUUAAGUCGGCCGCCACUGAAACAUGAGGAUCACCCAUGUAAAUUUGGGAGUAGUUAUAUUACAGGACCGGGACUAUAGUAA [JR_ExcTryptoB_Sub020] | 51 nM
34 | AGACAUGAGGAUCACCCAUGUAGUACGGAUACCAGAUCCAGAUGUAUCCCUUGGCAGCUGUGGUACAGCGUUACAUCGCUCGUAG [Exclusion - Theophylline A (Freestyle 21)] | 16.6 nM
35 | GUGUCCUAGUCGGCCGCCACUGGUACGAAUACCUUCACCCGUGUGCACAUGAGGAUCACCCAUGUCAGGACCGGGACUAGGGUGU [SSTryp B #24] | 14.1 nM
36 | GGACUAACCAGAAGGAGCGAUACGCAGAAACUGCAAUUUCCUCUACACGAGGAUCACCCGUGUCAGGUAGGUCGCUGGUUAGUCG | 29.7 nM
37 | GCUACGUGCUGAAGGAGCGUGGACCUAAACAUGAGGAUCACCCAUGUCGUGUAGGCAGAUUCACAGGUAGGUCGCAGCACGUAGC [SSAB NP+V+V2 #14 Same Structure] | 120 nM
38 | GUUGAGACCUCGGCCGCCACUCGCCAUGAGGAUCUCCCAUGUAACAUGAGGAUCACCCAUGUACUGAGGACCGGGAGGUCCUUGU [Same State Tryptophan B GF 16] | 15.5 nM
39 | ACAUGAGGAUCACCCAUGUAGCCUAGGGAAGGAGCGUCGUAAGAGACAGGUAGGUCGCCCGCAUGUGAGUCAUCCAUGACGAGGG [#18 Same State - Arginine A] | 23.6 nM
40 | CUAUAUGGAAACAUAUAGAAGCGAAAGCAACGAGGACCGGUACGGCCGCCACUCGAAGAGUGGUGGACAUGAGGAUCACCCAUGU [Design 3] | 99.6 nM
41 | AGAUGUAGCGGAAGGAGCGUCAUGAGGAUCACCCAUGACUCCCGUUGUGGGAGUUCCUUAGGUCAGGUAGGUCGCCGUUACGUCA [Omei Arg B SS B v5] | 596 nM
